Results reported in the DeepSol protein solubility set.

Test: soluble on expression in E. coli; label from the status in PepcDB or PDB records

Sequence | soluble on expression in E. coli
MSLHLSNVILHQLCKNDQDELVVKLRPASLENDASTENLVAELHRVFHSKAGKGFGSFQSDSEFQFWLQEMRKGERDFYDFSQISANRLKEELIKYPFADEGILVFAEYQSLATDYLFIGILPMNQSLKVTEGLDISATDYLDITKMDIAARIDLSSYETDKESNRYLQYIKGRVGRKVADFFLDFLQADIGLDTKQQNLVLMQAVDDFCADSKLEKQEVNEYKKQVYNYCNEQIKSGEEVQISELSGELPPSQDGTSFMDFTKEQGYELEESFPGDRSTVRKLTKYVGAGGGLNISFDSLLLGERIFYDPETDTLTIKGTLEHHHHHH | not soluble
MGSDKIHHHHHHMPRGDIGIDLGTASIIVYKRGEGIVLHEPSVVAISEKTGEIVAIGEEAKKMLGKTPEGLKAIRPMKDGVIADYRMIEAIIRNFLKKIIGRFSFVKPSLIIGVPTKITEVEKRAVFEAGLNAGARRVHIVSEPIAAAIGAGIDVMASEGNMVVDIGGGTTDIAVISLGGTVVGESVRMAGDAMDEAIVKFIRKKYGLIIGESTAEEIKKRIGKTHPAFENYEIEIKGRDVVTGLPRTDRVSSEDVREAIEPIIFALLTKLKNVLERTPPELSADIINNGIRLTGGGALLRGLDRTIYDEIHVKTIVADDPITCVARGTGILLEDEKLLKTVCETYSR | not soluble
LMPTERIDINEREDCTASEMTAPTVPVALVTGAAKRLGRSIAEGLHAEGYAVCLHYHRSAAEANALSATLNARRPNSAITVQADLSNVATAPVSGADGSAPVTLFTRCAELVAACYTHWGRCDVLVNNASSFYPTPLLRNDEDGHEPCVGDREAMETATADLFGSNAIAPYFLIKAFAHRVAGTPAKHRGTNYSIINMVDAMTNQPLLGYTIYTMAKGALEGLTRSAALELAPLQIRVNGVGPGLSVLVDDMPPAVWEGHRSKVPLYQRDSSAAEVSDVVIFLCSSKAKYITGTCVKVDGGYSLTRA | soluble
MGSDKIHHHHHHAQQTSEVDLIDIAGGMEKLTELKVSDLGKTIRYIPLETTDSCLIGDFPNIKLLDDKIMVYNGKQCLLFDKETGKFICSVGHRGDDPEAYSSTCGYLNPKNQLLYFNRDPNQLVKYNQKGNFAGVITIPSPETSTGNIQINRPGMNGFVFSDSIIIGHYVGGLGQRCPSSVLYFSDKGNYIDTIPNIIPELGTGQVGDINNISVRKGFGLLEGIIQIQYNNGKQSICVPGYTALWKCNDEIRFKELFTDTIYTLKHNQLEKYIIFNTGKYYWPASERTLTDNNSDRIMISYAIENDKLLYFQFIRGLYTDKHILYNGIYDKNTKVTNIALAENNFVDDLTHFMPFTPSFLNEKGECASLVQAADILTWLEEHPEVKIEKELGVLKNLNEESNPVVVLVK | not soluble
MALDNRHRLIVGKLAEAFGLPENVIEKTLTQDKQAVNSFFTPAGPPSLVFVYQVKEDKLKDGSVGPVDNKPTLHRIGPHERIHNKGVYFTRLNPKGINEKTLEADMGSGELSGGALENFKAIVSDLYLPIMQEQQQWGKMSTEYLEDFLSSTAKFGSMLTEAVATVSGGVELRMPDPRYIDQYGDLRPAGITQAAGDDDTLQEMEECLTEWCREAELLLNQTNKIKDGEEPGPDTELEYWRTRMSNFNSITEHLKTKECKLVLGICSHAKTKAYLRWRALDVQITDAANESKDNVKYLATLEKSMEPMYQGRVTDITESLPALMTNVRMMYTIARFYSTAEHMTRLFTKITNQLVRRCKEQIMENGKIWDQDKVTLIGNMKVSVELANVYRQQYRLAKETLAAQPKSKQFDFDEQAIFLKFDLFSKRLHKLIDMFTTIHQFSSLEQHTHIEGLDTMLKSLNNIIDDVKRKPYDLLDYSRNAFDRDFLEFNVQINDLELQLQGFVNASFEHITSTEHALSLLAQFQAIMQRETLQQDLENKYMVIFQNYAKDLDAVQKLYEKNKYEPPVPRNAPPVAGNIMWARQLLRRIEAPMQRFAQNKNLLAAKESKKIIKTYNKVAKALIEFETLWHQAWIKSIEQCKAGLAAPLLVQHPDTGKILVNFDKEIMQLVREAKYMQRFNIAVPESAQMVLLQEEKFKFYHNQLTHLVREYEHVLGRVAPTIKPLLRPHLDDMERKIAPGFAVLTWTSLNIDGYLHRFKQGLARLEELVRKVVDLTENRVDSNLGAISSTLLVELPTDRSFTYEEFVSTQNRFQKKQAELLAIRNEEVRRAIEDLLTLVRNYPRENTEDVLDEKEVSLFVRHYSKNMYNAIMQCTLNSLQAMKRRLGSKTTTGIFFMERPFFDVDVELKVPSVCMNPTLEEIQAAINQCAKKVLTISKQLPAWGMDNVATYHEMIAGDKEVVKAVLRLTGSVEGIKTQVGEYIRTFDKYDFLWKEDLQAAYDHFMRSNPTLEAFEAELKKYMAIETEVTMINGVNNIGALSLETMPLKNSLKAEAVSWKTQFAQNLHKQCSDDLKAFDNYIRDTNSKFHRKIEDLEDVRNVMAVLKEVREKESEIDNLIGPIEEMYGLLMRYEVRVPKEETTMVSDLRYGWKKLKKVATEVSDNLTRLQVGFKRELIKEVKTFVVDAQMFRKDWEANGPMVPGLDPQEAVDRLRKFQQMFEVRKRKWENYSSGEELFGLPVTQYPELEQTEKEIQMLDRLYSLYVAVITTIKGYGDYFWVDVVEKIDEMGEQVQQYQNQSKKLPKALRDWPAYNACRKTIDDFLEMLPLFQALTHKSMRERHWKEVMRVTGHELNLAEDHFKLQHLLDCNVLRYREDIEDLTGAAVKEEIIEVKLNQLKADWATANLAFAEYKNRGPVILKPSDTSELMEKLEESQMTLGSMATNRYSAPFRDEVQAWSIKLSTVSEIIEQWLMVQSMWQYMEAVF | not soluble
MSLSRILFLTDLHWDHDYLEGTDPDCADPLCCRRGSGLPPASRPGAGYWGEYSKCDLPLRTLESLLSGLGPAGPFDMVYWTGDIPAHDVWHQTRQDQLRALTTVTALVRKFLGPVPVYPAVGNHESTPVNSFPPPFIEGNHSSRWLYEAMAKAWEPWLPAEALRTLRIGGFYALSPYPGLRLISLNMNFCSRENFWLLINSTDPAGQLQWLVGELQAAEDRGDKVHIIGHIPPGHCLKSWSWNYYRIVARYENTLAAQFFGHTHVDEFEVFYDEETLSRPLAVAFLAPSATTYIGLNPGYRVYQIDGNYSGSSHVVLDHETYILNLTQANIPGEGHHHHHH | soluble
GMSSKQHCVKLNDGHLIPALGFGTYKPKEVPKSKSLEAACLALDVGYRHVDTAYAYQVEEEIGQAIQSKIKAGVVKREDLFVTTKLWCTCFRPELVKPALEKSLKKLQLDYVDLYIMHYPVPMKSGDNDFPVNEQGKSLLDTVDFCDTWERLEECKDAGLVKSIGVSNFNHRQLERILNKPGLKYKPVCNQVECHLYLNQRKLLDYCESKDIVLVAYGALGTQRYKEWVDQNSPVLLNDPVLCDVAKKNKRSPALIALRYLIQRGIVPLAQSFKENEMRENLQVFGFQLSPEDMKTLDGLNKNFRYLPAEFLVDHPEYPFVEEY | soluble
SQIFASDGKTQLARIVPPDGNRTEVPIDKIPEVTRNAVLAAEDREFYTNSGFSFTGFGRAILGQLTGDASAGGGSTITQQYVKNMVVGNDYSYMRKAKELVYSVKMANEWSKDEVLGAYLNTIYFGRNAYGIDAAAHAYFGVPASELNVGQSAMLAATIQRPSQLDPWSNR | not soluble
MGSDKIHHHHHHMITTARQLKDLIRNMSKKKSADAQILMRNYMMERFLERISLSEYKNQFILKGGMLVAAMVGLDARATMDLDATIKGTNVSVEDVEMIISQIISIPLDDGVSFRVKRISEIMEEADYPGVRVSMETKFDGVITPLKIDISTGDVITPREIKYKFNLMLEDRTIEVWAYNLETVLAEKLETVVSRNVTNTRMRDFYDIYILQKLYGEQLQKQVLWTALVATAKKRGTLDLIEAEDIREIFDEIESSPVMETLWKTYQKNYSYAADISWHAIVKSICALYGSILENMYNT | not soluble
MGSDKIHHHHHHMAESKTKRLLYFMSELEKGNQINKEEYIAKFNISDRTMKEDVSELKTNLKELRPNMQIKFSRKHACYFASYEQGYGNLKYNQAVILSKILLESRALRKEEVAEIINIFVERAVDDKERTRIKKLTQFELNSYQELKFYQKSNKSILPTISAIFDAIVDQRPLAFSYTKPSSKVEEYIVLPISVIFDNHYFYCISYKLDNCFQSRYELQELRYFRVDRFKTIHKSISNSAFALTEEEQERLITDEQVRYQTFSMLSDQKWVRIQFRYTGQFRDVLEADIPKLKMINELEEGIIYEIETLSLLGFQKYIQRFDGDFVFLNIKSIKK | not soluble
MGSDKIHHHHHHMTNLNEKQLITEIVGLARSQGLTVHSENAQLNETGMDFQVVFAKDDTGMPWVLRKPRRSDVVERASAEGITLAFLRANLTADVPDWRIHTPELIAYPMLKGTPAAGIDLEQKQYVWNMDHQPPSDDFVRTLADILAELHGTDQISAGQSGIEVIRPEDFRQMTADSMVDVKNKLGVSTTLWERWQKWVDDDAYWPGFSSLIHGDLHPPHILIDQNGRVTGLLDWTEAKVADPAKDFVLYQTIFGEKETARLLEYYDQAGGRIWAKMQEHISEMQAAYPVEIAKLALQTQQEEHINMALEALGVTSD | not soluble
MKIVLAYSGGLDTSIILKWLKETYRAEVIAFTADIGQGEEVEEAREKALRTGASKAIALDLKEEFVRDFVFPMMRAGAVYEGYYLLGTSIARPLIAKHLVRIAEEEGAEAIAHGATGKGNDQVRFELTAYALKPDIKVIAPWREWSFQGRKEMIAYAEAHGIPVPVTQEKPYSMDANLLHISYEGGVLEDPWAEPPKGMFRMTQDPEEAPDAPEYVEVEFFEGDPVAVNGERLSPAALLQRLNEIGGRHGVGRVDIVENRFVGMKSRGVYETPGGTILYHARRAVESLTLDREVLHQRDMLSPKYAELVYYGFWYAPEREALQAYFDHVARSVTGVARLKLYKGNVYVVGRKAPKSLYRQDLVSFDEAGGYDQKDAEGFIKIQALRLRVRALVEREGHGA | soluble
MLSRLSSIFRYFGTTSTIATMSPKKVTIIGSGNWGSAIARIVGSTTKSFPDEFDPTVRMWVFEEIVNGEKLSEVINNRHENIKYLPGKVLPNNVVAVTDLVESCEGSNVLVFVVPHQFVKGICEKLVGKIPADTQAISLIKGVSTEKRGGLKLISEEIKEILKIEVSVLMGANLAPEVANDNFCEATIGCKRKAEDGPLLKKLFHTDNFRINVVEDAHTVELCGALKNVVACAAGFTDGLGYGDNTKAAVIRLGLMETTKFVEHYYPGSNLQTFFESCGIADLITTCYGGRNRKVCEAFVKTGKSMAEVEKELLNGQSAQGPLTAEEVYLMMHKTGLDAKFPLFTAVHKICAGEMKPAELVDCLRNHPEHM | not soluble
MNQWMELADRVLAGAEVTDEEALSILHCPDEDILLLMHGAFHIRKHFYGKKVKLNMIMNAKSGLCPENCGYCSQSAISKAPIESYRMVNKETLLEGAKRAHDLNIGTYCIVASGRGPSNREVDQVVDAVQEIKETYGLKICACLGLLKPEQAKRLKDAGVDRYNHNLNTSQRNHSNITTSHTYDDRVNTVEIAKESGLSPCSGAIIGMKETKQDVIDIAKSLKALDADSIPVNFLHAIDGTPLEGVNELNPLYCLKVLALFRFINPSKEIRISGGREVNLRTLQPLGLYAANSIFVGDYLTTAGQEETEDHKMLSDLGFEVESVEEMKASLSAKSLEHHHHHH | not soluble
GMKIEHVALWTTNLEQMKQFYVTYFGATANDLYENKTKGFNSYFLSFEDGARLEIMSRTDVTGKTTGENLGWAHIAISTGTKEAVDELTEKLRQDGFAIAGEPRMTGDGYYESVVLDPEGNRIEITW | soluble
MKKYNIPVEATLEVIGGKWKVVILCHLTKGTKRTSELKRSMPGITQKMLTQQLRELEDDGVIQRKVYNQVPPKVEYSLTDYGWSLESILDSLCSWGECHLEKEGNTSMLIAEGE | not soluble
